Reference: patent US20220153832A1 (PIONYR IMMUNOTHERAPEUTICS, published 2022)

T1: N-terminally polyhistidine tagged human MARCO ECD (147-520), recombinant (human, UniProt Q9UEW3 147-520)
T1 construct: also called PI-RG-3000; recombinant human MARCO; not shown: N-terminal polyhistidine tag
T1 sequence: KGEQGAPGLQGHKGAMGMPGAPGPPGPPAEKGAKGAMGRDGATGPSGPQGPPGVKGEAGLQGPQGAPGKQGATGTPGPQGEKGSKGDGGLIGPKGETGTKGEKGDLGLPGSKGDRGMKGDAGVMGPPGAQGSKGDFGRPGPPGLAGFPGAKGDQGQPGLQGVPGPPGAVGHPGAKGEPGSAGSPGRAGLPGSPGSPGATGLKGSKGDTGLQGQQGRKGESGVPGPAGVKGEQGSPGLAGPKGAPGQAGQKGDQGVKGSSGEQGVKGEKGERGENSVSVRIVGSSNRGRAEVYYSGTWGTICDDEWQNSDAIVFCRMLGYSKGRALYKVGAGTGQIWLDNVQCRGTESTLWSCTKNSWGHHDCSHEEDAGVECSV

T2: human MSR1 (R&D Systems) (human, UniProt P21757 77-451, limits assumed)
T2 construct: Related scavenger receptor used as specificity control; also called MSRI
T2 sequence (looked up): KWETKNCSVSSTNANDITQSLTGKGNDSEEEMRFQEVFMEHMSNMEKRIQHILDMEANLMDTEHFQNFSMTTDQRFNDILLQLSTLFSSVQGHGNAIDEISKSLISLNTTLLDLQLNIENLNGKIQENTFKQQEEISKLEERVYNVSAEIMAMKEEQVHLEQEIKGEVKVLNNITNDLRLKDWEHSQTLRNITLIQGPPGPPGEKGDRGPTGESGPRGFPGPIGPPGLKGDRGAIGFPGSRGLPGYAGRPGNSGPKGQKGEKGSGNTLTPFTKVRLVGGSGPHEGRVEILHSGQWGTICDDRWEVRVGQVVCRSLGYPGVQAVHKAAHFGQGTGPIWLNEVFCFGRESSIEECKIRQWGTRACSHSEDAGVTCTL

T3: Cynomolgus MARCO, full length, on cells (cynomolgus, UniProt A0A2K5X0Z2 1-519)
T3 construct: whole, on cells; also called cyno MARCO; CyMARCO
T3 sequence: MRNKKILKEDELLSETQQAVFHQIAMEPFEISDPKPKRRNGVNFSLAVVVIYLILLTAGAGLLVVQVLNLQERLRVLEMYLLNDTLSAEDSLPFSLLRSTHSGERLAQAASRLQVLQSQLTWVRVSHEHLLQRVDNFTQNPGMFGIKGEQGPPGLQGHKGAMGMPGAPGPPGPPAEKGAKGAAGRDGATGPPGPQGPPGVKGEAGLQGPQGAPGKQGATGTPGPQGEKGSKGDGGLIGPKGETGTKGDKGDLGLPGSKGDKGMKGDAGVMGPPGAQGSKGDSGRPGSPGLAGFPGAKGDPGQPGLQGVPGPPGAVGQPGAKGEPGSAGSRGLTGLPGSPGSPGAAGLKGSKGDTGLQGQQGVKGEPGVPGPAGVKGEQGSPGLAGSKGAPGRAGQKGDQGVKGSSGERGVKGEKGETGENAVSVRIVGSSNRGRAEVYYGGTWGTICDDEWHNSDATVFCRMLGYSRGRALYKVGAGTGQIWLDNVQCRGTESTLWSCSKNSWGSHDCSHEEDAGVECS


Assays:
[1] = target: T1, N-terminally polyhistidine tagged human …; assay: Biacore; deamidation stress sample (40 C 2 week)
[2] = target: T1, N-terminally polyhistidine tagged human …; assay: Biacore, recombinant human MARCO; control sample
human MSR1 (R&D Systems) = target: T2, human MSR1 (R&D Systems); assay: ELISA on MSR1
Summary of the method: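 Cross-reactivity with human MSR1 (R&D Systems) was tested by ELISA. Maxisorp plates were coated overnight with 0.1 ug/well protein in DPBS with Ca2+ and Mg2+, then blocked with PBS/Ca2+/2% FBS. Hybridoma supernatants were added 1:1 in that buffer for 1 hour at room temperature. Detection used HRP-conjugated anti-rat IgG for 1 hr, then TMB and A450.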

[3] = target: T3, Cynomolgus MARCO, full length, on cells; assay: flow cytometry, 293T (CyMARCO)
Protocol: Supernatants were removed and cell pellets were resuspended in Ca²⁺+ and Mg²⁺+ Dulbecco's phosphate-buffered saline (D-PBS) at 1×10⁶ cells/ml. 100,000 cells/well were plated onto U-bottom 96-well plates for staining and all centrifugation steps were performed at 1500 rpm at 4° C. for 5 min and samples were kept protected from light throughout the protocol. Cells were pelleted and resuspended in 100 μl of Zombie NIR viability dye (BioLegend) prepared by diluting Zombie NIR dimethyl sulfoxide (DMSO) stock 1000-fold in D-PBS. Cells were stained by incubation for 10 min at room temperature (RT) in the dark, followed by quenching the staining reaction with the addition of 100 μl of Staining Medium (D-PBS containing 2% FBS and 2 mM ethylenediaminetetraacetic acid (EDTA). Cells were pelleted and resuspended in 100 μl of the different antibodies and hybridomas supernatants needed for screening and corresponding isotype controls in freshly prepared staining medium, such as PI-M014 and mIgG2b isotype. All mAbs were tested at the final top concentration of 100 nM (15 μg/ml) followed by an 8-point three-fold serial dilution, including 0 mg/ml control. Staining was carried out for 1 hour (hr) on ice, followed by 2 washes in Staining Medium. Cells were then pelleted and resuspended in 100 μl of allophycocyanin (APC)-conjugated goat anti-mouse IgG (Fc-specific) secondary antibody, prepared by 500-fold dilution of the antibody stocks in Staining Medium, and incubated for 30 min on ice. […] Flow cytometry data were analyzed using FlowJo software (version 10.6.1) and data were processed and further analyzed in Microsoft Excel and GraphPad Prism software (version 8). Half-maximal effective concentrations (EC₅₀) were calculated based on geometric mean fluorescence intensities (gMFI). In case when the plates were not able to be analyzed on the cytometer, cells were pelleted after the washes and fixed in 100 μl of 2% paraformaldehyde (PFA), prepared by diluting the 16% (w/v) stock (Thermo Fisher) in DPBS, for 15 min at RT. […]

hVar3 (RG3036) = target: T4, hVar3 (RG3036) (human, UniProt Q9UEW3 147-520); assay: ELISA on hVar3
T4 construct: Human MARCO His-CLD-SRCR with Q452D, Y472S and K473S (already in the entry); also called recombinant human SRCR MARCO hVar3 protein

[4] = target: T3, Cynomolgus MARCO, full length, on cells; assay: flow cytometry, cells overexpressing cyno MARCO

binding result (human MSR1 (R&D Systems))	EC50 [3]	Binder	also measured
		PI-3015-AB (antibody, human IgG1, kappa) heavy: not shown light: DIQMTQSPSSLSASVGDRVTITCRASEGISNDLAWYQQKPGKAPKLLIYAASRLQSGVPSRFSGSGSGTDYTLTISSMQPEDFATYYCQQSYKYPLTFGQGTKLEIKRTVAAPSVFIFPPSDEQLKSGTASVVCLLNNFYPREAKVQWKVDNALQSGNSQESVTEQDSKDSTYSLSSTLTLSKADYEKHKVYACEVTHQGLSSPVTKSFNRGEC	Kd [1]: 1.24 nM; Kd [2]: 0.97 nM
no binding		PI-HX-3061 (antibody, rat IgG2a, Parental rat hybridoma, rat IgG2a; cross reactive with human and mouse MARCO) heavy: EVQLVESGGGLVQPGSSLKLSCVASKFTFSNYGMNWIRQAPKKGLEWIALIYYNSNNKYYADSVKGRFTISRDNSKNTLYLEMNSLRSEDTAMYYCAKSLTGGSDYFDSWGQGVMVTVSSAETTAPSVYPLAPGTALKSNSMVTLGCLVKGYFPEPVTVTWNSGALSSGVHTFPAVLQSGLYTLTSSVTVPSSTWPSQTVTCNVAHPASSTKVDKKIVPRNCGGDCKPCICTGSEVSSVFIFPPKPKDVLTITLTPKVTCVVVDISQDDPEVHFSWFVDDVEVHTAQTRPPEEQFNSTFRSVSELPILHQDWLNGRTFRCKVTSAAFPSPIEKTISKPEGRTQVPHVYTMSPTKEEMTQNEVSITCMVKGFYPPDIYVEWQMNGQPQENYKNTPPTMDTDGSYFLYSKLNVKKEKWQQGNTFTCSVLHEGLHNHHTEKSLSHSP light: DVQMTQSPSYLAASPGESVSISCKASKSIGTFLAWYQEKPEKTNKLLIYSGSTLQSGTPSRFSGSGSGTDFTLTIRNLEPEDFAVYYCQQHDEYPFTFGSGTKLEIKRADAAPTVSIFPPSTEQLATGGASVVCLMNNFYPRDISVKWKIDGTERRDGVLDSVTDQDSKDSTYSMSSTLSLTKADYESHNLYTCEVVHKTSSSPVVKSFNRNEC	
no binding	0.046 nM	PI-HX-3031 (antibody, Parental rat hybridoma, rat IgG2a) heavy: QVQLKESGPGLVQPSQTLSLTCTVSGFSLTSYHVSWVRQPPGKGLEWMGAIWTGGSIAYNSLLKSRLSISRDTSKSQVFLKMNSLQTEDTATYYCARDLSDYYSSYTSFDYWGQGVMVTVSTAETTAPSVYPLAPGTALKSNSMVTLGCLVKGYFPEPVTVTWNSGALSSGVHTFPAVLQSGLYTLTSSVTVPSSTWSSQAVTCNVAHPASSTKVDKKIVPRECNPCGCTGSEVSSVFIFPPKTKDVLTITLTPKVTCVVVDISQNDPEVRFSWFIDDVEVHTAQTHAPEKQSNSTLRSVSELPIVHRDWLNGKTFKCKVNSGAFPAPIEKSISKPEGTPRGPQVYTMAPPKEEMTQSQVSITCMVKGFYPPDIYTEWKMNGQPQENYKNTPPTMDTDGSYFLYSKLNVKKETWQQGNTFTCSVLHEGLHNHHTEKSLSHSP light: DIQMTQSPASLSTSLGETVSIECLASEGISNDLAWYQQKSGKSPQLLIYAASRLQDGVPSRFSGSGSGTRYSLKISGMQPEDEADYFCQQSYKYPLTFGSGTKLEIKRADAAPTVSIFPPSTEQLATGGASVVCLMNNFYPRDISVKWKIDGTERRDGVLDSVTDQDSKDSTYSMSSTLSLTKADYESHNLYTCEVVHKTSSSPVVKSFNRNEC	
	0.067 nM	PI-HX-3043 (antibody, rat IgG2a, Parental rat hybridoma, rat IgG2a) heavy: QVNLLQSRAALVKPGASVKLSCKASGYTFTDYYLHWVKQSHAKSLEWIGYINPNNAYTSYNEKFKSKATLTVDKSTNTAYMELSRLTSADSATYYCARDTTDYYNLHFAYWGQGTLVTVSSAETTAPSVYPLAPGTALKSNSMVTLGCLVKGYFPEPVTVTWNSGALSSGVHTFPAVLQSGLYTLTSSVTVPSSTWSSQAVTCNVAHPASSTKVDKKIVPRECNPCGCTGSEVSSVFIFPPKTKDVLTITLTPKVTCVVVDISQNDPEVRFSWFIDDVEVHTAQTHAPEKQSNSTLRSVSELPIVHRDWLNGKTFKCKVNSGAFPAPIEKSISKPEGTPRGPQVYTMAPPKEEMTQSQVSITCMVKGFYPPDIYTEWKMNGQPQENYKNTPPTMDTDGSYFLYSKLNVKKETWQQGNTFTCSVLHEGLHNHHTEKSLSHSP light: DIQMTQSPASLSASLGETVSIECLTSEGISNDLAWYQQKSGKSPQLLIYDASRLEDGVPSRFSGSGSGTRYSLKISGMQTEDEADYFCQQSYKYPLTFGSGTKLEIKRADAAPTVSIFPPSTEQLATGGASVVCLMNNFYPRDISVKWKIDGTERRDGVLDSVTDQDSKDSTYSMSSTLSLTKADYESHNLYTCEVVHKTSSSPVVKSFNRNEC	
		PI-3010-AB (antibody, human IgG1, kappa) heavy: not shown light: DIQMTQSPASLSTSLGETVSIECLASEGISNDLAWYQQKSGKSPQLLIYAASRLQDGVPSRFSGSGSGTRYSLKISGMQPEDEADYFCQQSYKYPLTFGSGTKLEIKRTVAAPSVFIFPPSDEQLKSGTASVVCLLNNFYPREAKVQWKVDNALQSGNSQESVTEQDSKDSTYSLSSTLTLSKADYEKHKVYACEVTHQGLSSPVTKSFNRGEC	binding result (hVar3 (RG3036)): no binding; EC50 [4]: 0.34 nM
